# Reference: PMC6901024 (Journal of the American Chemical Society, 2019)
# B1: His6-FtmOx1-Y140F (enzyme)
# chain: MTVDSKPQLQRLAADADVDRMCRLLEEDGAFILKGLLPFDVVESFNRELDVQMAIPPPKGERLLADKYPPHFKYVPNVATTCPTFRNTVLINPVIHAICEAYFQRTGDYWLSAAFLREIESGMPAQPFHRDDATHPLMHFQPLEAPPVSLSVIFPLTEFTEENGATEVILGSHRWTEVGTPERDQAVLATMDPGDVLIVRQRVVHAGGGNRTTAGKPRRVVLAYFNSVQLTPFETYRTMPREMVESMTVLGQRMLGWRTMKPSDPNIVGINLIDDKRLENVLQLKAADSPA
# Target: the molecule itself
# Test: SEC
protein,measurement,value
B1,stoichiometry N,2
